The text below walks through data of publication PMC4622058.

This experiment has as its target Human FcγRIIIa V158 (human). Description: AlphaScreen or HTRF.

“anti-CD142 mAb variant 2h-AEA (IgG1 with IgG2 lower hinge, K326A/I332E/E333A) (antibody)” displayed a fold difference in binding against IgG1 of less than 2 fold. “anti-CD142 mAb with human IgG2 constant region (antibody)” returned a fold decrease in binding against IgG1 greater than 30 fold. For the substance “anti-CD142 mAb variant 2h-DAA (IgG1 with IgG2 lower hinge, S239D/K326A/E333A) (antibody)”, the fold difference in binding against IgG1 was less than 2 fold.
